# Assay: yeast display, Sf9 membrane polyspecificity reagent, FACS + sequencing; frameworks hold sequencing errors
# Outline: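 A synthetic nanobody library was expressed on Saccharomyces cerevisiae BJ5465 by galactose induction for 36–48 hours. The library was stained for 1 hour at 4 °C with 10% biotinylated, detergent-solubilized Sf9 membrane reagent and enriched with streptavidin microbeads before FACS. Low and high (top ~1%) gates were set on anti-HA fluorescence for expression and streptavidin fluorescence for reagent binding, and each polyreactivity label reflects the gate of origin.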
row,Sequence,polyreactivity (PSR sort gate)
1,QVQLVESGGGLVQAGGSLRLSCAASGFIFFTYAMGWYRQSPGKERELVAAISSRGGSTYYADSVKGRFTISRDNAKNTVYLQMNSLKPEDTAVYYCAAQAYGRYPYGYWGQGTQVTVSS,high polyreactivity
2,QVQPQESGGGLVQAGGSLRLRCAASGTIFAFQTMGSYRQAPGKERELVASITYGSSTNYADSVKGRFTISRDNAKNTVYLQMNSLKPEDTAVFYCAVPQAQYYYDYWGQGTQVTVSS,high polyreactivity
3,QVQLVESGGGLVQAGGSLRLSCAASGRTFYANAMGWYRQAPGKERELVASITTSGGTYYADSVKGRFTISRDNAKNTVYLQMNSLKPEDTAVYYCAADVYRSIGYDYWGQGTQVTVSS,low polyreactivity
4,QVQLVESGGGLVQAGGSLRLSCAASGRTFGYYTMGWYRQAPGKERELVAAISWNGDDTYYADSVKGRFTISRDNAKNTVYLQMNSLKPEDTAVYYCAKDFLGNYYWTDVYTYGGEGDYWGQGTQVTVSS,low polyreactivity
5,QVQLVESGGGLVQAGGSLRLSCAASGITFYSYAMGWYRQAPGKERELVAAISSSGTTYYADSVKGRFTISRDNAKNTVYLQMNSLKPEDTAVYYCATDYSLGWYQDSDGGYQFDYWGQGTQVTVSS,high polyreactivity
6,QVQLVESGGGLVQAGGSLRLSCAASGRTFLYYAMGWFRQAPGKERELVAAISASGGSTYYADSVKGRFTISRDNAKNTVYLQMNSLKPEETAVYSCARYTGWGSRYDYWGQGTQVTVSS,high polyreactivity
7,QVQLEESGGGLVQAGGSLRLSCAASGRTFYTNAMGWYRQAPGKERELVAAISGRGSTYYADSVKGRFTISRDNAKNTVYLQMNSLKPEDTAVYYCAALLPGRSSSDYWGQGTLVTVSS,high polyreactivity
8,QVQLVESGGGLVQAGGSHRLSCAASGFTFRHYTMGWYRQAPGKERELVAVITRSGGSTYYADSVKGRFTISRDNAKNTVYLQMNSLKPEDTAVYYCAVGRTYNADGYWGQGTQVTVSS,high polyreactivity
9,QVQLVESGGGLVQAGGSLRLSCAASGRIFWHNAMGWYRQAPGKERELVAAITGGGSTYYADSVKGRFTISRDNAKNTVYLQMNSLKPEDTAVYYCATLGSLRYYWPGYDYWGQGTQVTVSS,low polyreactivity
10,QVQLVEPGGCLVQAGGSLRLSCAASGSIFAYNSMGSYRQAPGKERELVAAITISGGRTYYADSVKGRFTISRDNAKNTVYLNMNSLKPEDTAVYYCNADNARGRSGVRRYYWGQGTQVTVSS,high polyreactivity
11,QVQLVESGGGLVQAGGSLRLSCAASGYIFKSNVMGWYRQAPGKERELVAAISWSGGRTYYADSVKGRFTISRDNAKNTDYLQMNSLKPEDTAVYYCAAVGRQSNYYVDYDYWGQGTQVTVSS,high polyreactivity
12,QVQLVESGGRLVEAGGSLRISWAASGLIFGYNAMGWYRQAPGKERELVAAISGSGGRTYYADSVKGRFTISRDNAKNTVYLQMNSLKPEDTAVFYCAVADRRGLGYWGQGTQVTVSS,high polyreactivity
13,QVQLVESGGGLVQAGGSLRLSCAASGYIFRFNAMGWYRQAPGKERELVAVITKSGGSTYYADSVKGRFTISRDNAKNTVYLQMNSLKPEDTAVYDCNADRFYIDYTNTYDSIRDYWGQGTQVTVSS,low polyreactivity
14,QVQLVESGGGLVQAGGSLRLSCAASGIIFRGNAMGWYRQAPGKERELVAAISKSGGRTYYADSVKGRFTISRDNAKNTVYLQMNSLKPEDTAVYYCAASYYAVGGYDYWGQGTQVTVSS,high polyreactivity
15,QVQLVESGGGLVQAGGSLRLSCAASGRIFKSYAMGWYRQAPGKERELVATISISGGSTYYADSVKGRFTISRDNAKNTVYLQMNSLKPEDTAVYYCAADRYGLGDYDYWGQGTQVTVSS,low polyreactivity
16,QVQLVESGGGLVQAGGSLRLSCAASGRIFGVNAMGWYRQAPGKERELVAAITSSGGSTYYADSVKGRFTISRDHAKNTVYLQMNSLKPEDTAVYYCAAKYWYGKPYGSYGYWGQGTQVTVSS,high polyreactivity

row,Sequence,polyreactivity (PSR sort gate)
1,QVQVVESGGGLVPAGGSLRLSCAASGRIFADNDMGWYRQAPGKERELVAGISSGGGTYADSVKGRFSISRDNAKNTVSVQTNSPKPEDTAVHYCNALHAYYVLTPYDYWGQGTQVTVSS,low polyreactivity
2,QVHLVESGGGLVKAGGSLRLSCAASGLIFTQYSMGWYRQAPGTERELVAGITSSGGSTNYADSVKGRFTISRDNAKNTVYLQMNSLKPEDTAVYYCATRLGVLYDYWGQGTQVTVSS,low polyreactivity
3,QVQLVESGGGLVQAGGSLRLSCAASGSTFAWNAMGWYRQAPGKERELVAAISKSGGSTYYADSVKGRFTISRDHAKNTVYLQMNSLTPEDTAVYYCAARGTVYRRYGGSRYDYWGQGTQVTVSS,high polyreactivity
4,QVQLVESGGGLVQAGGSLRLSCAASGRTFHFYAMGWYRQAPGKERELVASITWSAVRTYYADSVKGRFTISRDNAKNTVYLQMNSLKQVDTAVYYCAKEWDYRLMDYWGQGTQVTVSS,low polyreactivity
5,QVQLVESGGGLVQAGGSLRVSCAASGSIFSYYDMGWYRPAPGKERELVAAITDGGDRTYYADSVKGRFTISRDNAKNTVYLQMNSLKPEHTAVYYCAAVVSVNMYWGQGTQVTVSS,low polyreactivity
6,QVQLVESGGGLVQAGGSLRLSCAASGLTFNYYAMGWYRQAPGKERELVASISKRGGTYYADSVKGRFTLSRDNAKNTVYLQMNSLKPEDTAVYYCAADYWFRRNEYDYWGQGTQVTVSS,high polyreactivity
7,QVQLVESGGGLVQAGGSLRLSCAAYGSTFKSYAMGWYSQAPGKDRELVAAITHRGSTYYADSVKGRFTISRDNAKNTVYLQMNSLKPEDTAVYYCNVRRIGNGRRVDYWGQGTQVTVSS,high polyreactivity
8,QVQLVESGGGLVQAGGRLRLSCAASGRTLFYYARGWYRQEPGKEREFVPAITWSGVSTSYADSVKGRFTISRDNAKNTVYLQLNSLKPEDTAVYYCAARGYRPRLGKWLDYNYWGQGTQVTVSS,high polyreactivity
9,QVQLVESGGGLVQAGGSLRLSCAASGFTFWRYAMGWYIQAPGKERELVAAISYSGGRTYYADSVKGRFTISRDNAKNTVYLQMNSLKPEDTAVYYCAASRVTYGGPYRDDYDYWGQGTQVTVSS,high polyreactivity
10,QVQLVESGGGLVQAGGSLGLSCAASGRTFSFYGMGWYRQAPGKERELVAAINSDSRTNYADSVKGRFTISRDNAKNTVYLQMNSLKPEDTAVYYCNAYWYTSTGQYSYEYWGQGTQVTVSS,low polyreactivity
11,QVQLVESGGGLVQAGGSLRLSCAASGITFYVNAMGWYRQAPGKERELVASISTGGSTNYADSVKGRFTISRDNAKNTVYLQMNSLKPEDTAVYYCAARVDYHPSLRDYWGQGTQVTVSS,low polyreactivity
12,QVQLVESGGGLVQAGGSLRLSCAASASTFLSYAMGWYRQAPGKERELVAAITSRGGSTYYADSVKGRFTISRDIAKNTVYLQMNSLKPEDTAVYYCATRLGYGDSKVRRPYSRFYYWGQGTQVTVSS,high polyreactivity
13,QVQLVESGGGLVQAGGSLRLSCAASGRTLARNAMGWYRQAPGKERELVARIRDSGGSKYYADSVKGRFTISRDNAKNTVYLQMNSLKPEDTAVYYCAARSRLVYSYYTYWGQGTQVTVSS,high polyreactivity
14,QVQLVESGGGLVQAGGSLRLSCAASGFIFVRNAMGWYRQAPGKERELVAAISSRGGRTYYADSVKGRFTISRDNAKNTVYLQMNSLKPEDTAVYYCNADRDTQGDGYDYWGQGTQVTVSS,high polyreactivity
15,QVQLVESGGGLVQAGGSLRLSCAASGRNFAYYAMGWYRQEPGKERELVAVISKSGGSTNYADSVKGRFTISRDNAKNTVYLQMNSLKPEDTAVYYCAKRAYDPEMYYWGQGTQVTVSS,low polyreactivity
16,QVQLVESGGGLVQAGGSLRLSCAASGLTFQLYAMGWYRQAPGKERELVAAISGSGGRTYYADSVKGRFTISRDNGKNTVYLLMNRLKPEDTAVYYCAARPGSGRSYTSDYWGQGTQVTVSS,high polyreactivity

# — the nanobody polyreactivity screen of Harvey et al. (2022)
